Laboratory results published in patent US20180305460A1 (Teva, published 2018).
Where two headings read alike, the source gives them in different places. Values belong to the binder of their own block, whether it stands above or below them.

Experiments:
[1] = biological target: Human CD38 (soluble analyte in the SPR assay) (human, UniProt P28907 43-300); assay: SPR (Biacore), antibody captured on Protein A from supernatant, CD38 injected; weakest KD among the separate SPR experiments
[2] = biological target: T1, interferon-alpha/β receptor (IFNAR) (human, UniProt P17181); assay: cell-based or functional assay
T1 sequence (receptor (subunits not named in the filing), looked up): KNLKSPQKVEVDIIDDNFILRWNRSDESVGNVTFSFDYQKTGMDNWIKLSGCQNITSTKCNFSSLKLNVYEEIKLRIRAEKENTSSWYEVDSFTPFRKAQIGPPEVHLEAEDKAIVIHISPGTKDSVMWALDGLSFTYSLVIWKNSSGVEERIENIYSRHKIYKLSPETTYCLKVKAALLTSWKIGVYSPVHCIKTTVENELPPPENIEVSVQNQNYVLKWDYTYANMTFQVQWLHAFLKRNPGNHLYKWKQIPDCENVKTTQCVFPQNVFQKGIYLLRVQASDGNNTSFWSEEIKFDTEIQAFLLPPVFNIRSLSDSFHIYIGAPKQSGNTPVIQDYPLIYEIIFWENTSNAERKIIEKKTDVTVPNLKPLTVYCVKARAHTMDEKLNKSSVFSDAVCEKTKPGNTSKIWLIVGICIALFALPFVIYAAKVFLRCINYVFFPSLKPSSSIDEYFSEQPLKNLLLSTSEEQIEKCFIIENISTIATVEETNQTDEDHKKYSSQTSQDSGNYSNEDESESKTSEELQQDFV

[3] = biological target: T2, Human CD38 on CD38-positive myeloma cells (ARP-1, H929) (human, UniProt P28907 43-300); assay: flow cytometry, ARP-1 cells (CD38-positive)
T2 construct: Endogenous CD38 on the human myeloma cell lines ARP-1 and H929, used in flow cytometry; also called NCI-H929

[4] = biological target: T3, Human CD38 (human, UniProt P28907 43-300); assay: SPR (Biacore), antibody from supernatant captured on Protein A, human CD38 injected, 1:1 fit
[5] = biological target: T2, Human CD38 on CD38-positive myeloma …; assay: flow cytometry, ARP-1 cells (CD38-positive); remark: listed apart in the source
[6] = biological target: T3, Human CD38; assay: SPR (Biacore), antibody from supernatant captured on Protein A, human CD38 injected, 1:1 fit; remark: listed apart in the source
[7] = biological target: T2, Human CD38 on CD38-positive myeloma …; assay: flow cytometry, ARP-1 cells (CD38-positive); remark: listed apart in the source
[8] = biological target: T3, Human CD38; assay: SPR (Biacore), antibody from supernatant captured on Protein A, human CD38 injected, 1:1 fit; remark: listed apart in the source
[9] = biological target: T3, Human CD38; assay: as above; remark: listed apart in the source
[10] = biological target: T2, Human CD38 on CD38-positive myeloma …; assay: flow cytometry, ARP-1 cells (CD38-positive); remark: listed apart in the source
[11] = biological target: T3, Human CD38; assay: SPR (Biacore), antibody from supernatant captured on Protein A, human CD38 injected, 1:1 fit; remark: listed apart in the source
[12] = biological target: T3, Human CD38; assay: as above; remark: listed apart in the source

B2: A02.6 (wt. IFN) (antibody)
chain 1: QLQLQESGPGLVKPSETLSLTCTVSGGSISSSSYYWSWIRQHPGKGLEWIGYIYYSGSTNYNPSLKSRVTISVDTSKNQFSLKLSSVTAADTAVYYCARVGGAGGWPMDVWGQGTTVTVSS
chain 2: QAVLTQPASLSASPGESARLTCTLPSDINVRYYNIYWYQQKPGSPPRYLLYYYSDSHKGQGSGVPSRFSGSKDVSTNSGILLISGLQSEDIATYYCMTWSSNGSGVFGGGTQLTVLG
EC50; HEK-Blue IFN-alpha/β SEAP reporter (A630) on CD38-negative cells, the unit comes from the x axis 'IFN pM' [2]: 667 pM

B3: X02.85 (antibody, V domains shown)
VH: QLQLQESGPGLVKPSETLSLTCTVSGGSISSSSYYWSWIRQHPGKGLEWIGYIYYSGSTNYNPSLKSRVTISVDTLKNQISLRLTSVTAADTAVYYCARVGGAGGWPMDVWGQGTTVTVSS
VL: QAVLTQPASLSASPGESARLTCTLPSDINVRYYNIYWYQQKPGSPPRYLLYYYSDSHKGQGSGVPSRFSGSKSTNSGILLISGLQSEDEADYYCMTWSSNGSGVFGGGTQLTVLG
notes: IgG4 S228P with the X02.1 VH; VL residues D(L66A) and V(L66B) of A02.1 are deleted
EC50 [3]: 6.3 µg/mL | Kd [4]: 270 pM

B4: X02.8 (antibody, human IgG4 S228P)
heavy: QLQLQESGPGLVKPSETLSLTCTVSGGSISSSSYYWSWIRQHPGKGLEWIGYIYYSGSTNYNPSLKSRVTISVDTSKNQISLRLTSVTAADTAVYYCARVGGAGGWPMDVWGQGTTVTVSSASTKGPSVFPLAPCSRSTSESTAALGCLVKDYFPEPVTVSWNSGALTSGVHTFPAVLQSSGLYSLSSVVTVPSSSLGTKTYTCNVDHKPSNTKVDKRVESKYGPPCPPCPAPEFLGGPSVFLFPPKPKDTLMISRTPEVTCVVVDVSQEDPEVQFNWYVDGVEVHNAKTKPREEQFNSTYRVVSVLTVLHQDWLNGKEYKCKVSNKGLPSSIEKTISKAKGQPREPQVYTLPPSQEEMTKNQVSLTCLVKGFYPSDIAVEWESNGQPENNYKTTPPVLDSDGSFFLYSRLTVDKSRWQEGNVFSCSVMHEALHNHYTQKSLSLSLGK
VL: QAVLTQPASLSASPGESARLTCTLPSDINVRYYNIYWYQQKPGSPPRYLLYYYSDSHKGQGSGVPSRFSGSKDVSTNSGILLISGLQSEDEADYYCMTWSSNGSGVFGGGTQLTVLG
notes: IgG4 S228P; VH L74S relative to X02.1
EC50 [5]: 18.3 µg/mL | Kd [6]: 23000 pM

B5: X02.70 (antibody, human IgG4 S228P)
heavy: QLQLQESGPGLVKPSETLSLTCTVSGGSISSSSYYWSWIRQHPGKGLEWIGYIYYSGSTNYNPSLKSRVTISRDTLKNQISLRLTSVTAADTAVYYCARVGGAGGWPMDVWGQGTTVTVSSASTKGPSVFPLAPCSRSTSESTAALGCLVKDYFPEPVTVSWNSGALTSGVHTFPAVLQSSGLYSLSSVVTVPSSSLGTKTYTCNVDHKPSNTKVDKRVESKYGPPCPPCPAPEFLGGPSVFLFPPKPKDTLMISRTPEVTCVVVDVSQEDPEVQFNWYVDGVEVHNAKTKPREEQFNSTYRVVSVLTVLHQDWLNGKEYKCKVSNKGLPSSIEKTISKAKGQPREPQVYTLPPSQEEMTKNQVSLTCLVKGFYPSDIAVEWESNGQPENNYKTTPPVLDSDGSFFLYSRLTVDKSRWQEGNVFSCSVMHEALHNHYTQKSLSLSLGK
VL: QAVLTQPASLSASPGESARLTCTLPSDINVRYYNIYWYQQKPGSPPRYLLYYYSDSHKGQGSGVPSRFSGSKDVSTNSGILLISGLQSEDEADYYCMTWSSNGSGVFGGGTQLTVLG
notes: IgG4 S228P; VH V71R relative to X02.1
EC50 [7]: 7.2 µg/mL | Kd [8]: 3540 pM

B6: X02.76 (antibody, human IgG4 S228P)
heavy: not shown
VL: QAVLTQPASLSASPGESARLTCTLPSDINVRYYNIYWYQQKPGSPPRYLLYYYSDSHKGQGSGVPSRFSGSKDVSTNSGILLISGLQSEDEADYYCMTWSSNGSGVFGGGTQLTVLG
notes: IgG4 S228P; VH M(100C)L relative to X02.1
Kd [9]: 0.158 pM

B9: X02.102 (antibody, V domains shown)
VH: QLQLQESGPGLVKPSETLSLTCTVSGGSISSSSYYWSWIRQHPGKGLEWIGYIYYSGSTNYNPSLKSRVTISVDTLKNQISLRLTSVTAADTAVYYCARVGGAGGWPMDVWGQGTTVTVSS
VL: QAVLTQPASLSASPGESARLTCTLPSDINVRYYNIYWYQQKPGSPPRYLLYYYSDSHKGQGSGVPSRFSGSKDVSANSGILLISGLQSEDEADYYCMTWSSNGSGVFGGGTQLTVLG
notes: IgG4 S228P with the X02.1 VH; VL T68A relative to A02.1
EC50 [10]: 20.4 µg/mL | Kd [11]: 120 pM

B10: X02.83 (antibody)
heavy: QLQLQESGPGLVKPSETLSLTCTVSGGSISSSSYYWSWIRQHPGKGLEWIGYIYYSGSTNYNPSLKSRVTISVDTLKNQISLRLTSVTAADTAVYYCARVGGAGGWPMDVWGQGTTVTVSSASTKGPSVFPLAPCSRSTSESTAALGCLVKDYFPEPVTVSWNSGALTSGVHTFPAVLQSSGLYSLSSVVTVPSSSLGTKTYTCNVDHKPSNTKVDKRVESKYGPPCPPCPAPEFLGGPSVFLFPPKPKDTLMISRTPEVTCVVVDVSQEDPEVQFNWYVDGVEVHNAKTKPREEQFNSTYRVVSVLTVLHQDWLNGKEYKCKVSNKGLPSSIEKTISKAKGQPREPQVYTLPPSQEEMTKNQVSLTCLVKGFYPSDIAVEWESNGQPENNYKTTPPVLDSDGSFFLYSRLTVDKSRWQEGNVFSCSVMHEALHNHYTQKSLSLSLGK
VL: QAVLTQPASLSASPGASARLTCTLPSDINVRYYNIYWYQQKPGSPPRYLLYYYSDSHKGQGSGVPSRFSGSKDVSTNSGILLISGLQSEDEADYYCMTWSSNGSGVFGGGTQLTVLG
notes: IgG4 S228P with the X02.1 VH; VL E17A relative to A02.1
EC50 [3]: 8.2 µg/mL | Kd [4]: 2690 pM

B12: X02.101 (antibody, V domains shown)
VH: QLQLQESGPGLVKPSETLSLTCTVSGGSISSSSYYWSWIRQHPGKGLEWIGYIYYSGSTNYNPSLKSRVTISVDTLKNQISLRLTSVTAADTAVYYCARVGGAGGWPMDVWGQGTTVTVSS
VL: QAVLTQPASLSASPGESARLTCTLPSDINVRYYNIYWYQQKPGSPPRYLLYYYSDSHKGQGSGVPSRFSGSKDASTNSGILLISGLQSEDEADYYCMTWSSNGSGVFGGGTQLTVLG
notes: IgG4 S228P with the X02.1 VH; VL V(66B)A relative to A02.1
EC50 [10]: 13.7 µg/mL | Kd [11]: 28.9 pM

B13: X02.72 (antibody, human IgG4 S228P)
heavy: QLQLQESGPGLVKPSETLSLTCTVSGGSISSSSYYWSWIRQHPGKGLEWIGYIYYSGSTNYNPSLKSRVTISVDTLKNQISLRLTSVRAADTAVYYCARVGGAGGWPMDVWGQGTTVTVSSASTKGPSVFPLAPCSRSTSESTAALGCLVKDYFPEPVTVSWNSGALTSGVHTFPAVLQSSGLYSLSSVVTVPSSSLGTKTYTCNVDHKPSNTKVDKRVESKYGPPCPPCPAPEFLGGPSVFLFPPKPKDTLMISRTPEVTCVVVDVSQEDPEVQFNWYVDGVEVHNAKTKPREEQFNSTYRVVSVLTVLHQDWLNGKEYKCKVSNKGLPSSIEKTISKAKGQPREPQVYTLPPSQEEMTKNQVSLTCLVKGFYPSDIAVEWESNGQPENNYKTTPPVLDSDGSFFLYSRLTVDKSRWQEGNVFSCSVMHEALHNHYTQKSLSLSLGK
VL: QAVLTQPASLSASPGESARLTCTLPSDINVRYYNIYWYQQKPGSPPRYLLYYYSDSHKGQGSGVPSRFSGSKDVSTNSGILLISGLQSEDEADYYCMTWSSNGSGVFGGGTQLTVLG
notes: IgG4 S228P; VH T83R relative to X02.1
EC50 [7]: 3.6 µg/mL | Kd [8]: 1630 pM

B15: X02.71 (antibody, human IgG4 S228P)
heavy: not shown
VL: QAVLTQPASLSASPGESARLTCTLPSDINVRYYNIYWYQQKPGSPPRYLLYYYSDSHKGQGSGVPSRFSGSKDVSTNSGILLISGLQSEDEADYYCMTWSSNGSGVFGGGTQLTVLG
notes: IgG4 S228P; VH I29V relative to X02.1
Kd [12]: 129 pM

B17: X02.103 (antibody, V domains shown)
VH: QLQLQESGPGLVKPSETLSLTCTVSGGSISSSSYYWSWIRQHPGKGLEWIGYIYYSGSTNYNPSLKSRVTISVDTLKNQISLRLTSVTAADTAVYYCARVGGAGGWPMDVWGQGTTVTVSS
VL: QAVLTQPASLSASPGESARLTCTLPSDINVRYYNIYWYQQKPGSPPRYLLYYYSDSHKGQGSGVPSRFSGSKDVSTNTGILLISGLQSEDEADYYCMTWSSNGSGVFGGGTQLTVLG
notes: IgG4 S228P with the X02.1 VH; VL S70T relative to A02.1
EC50 [10]: 9.4 µg/mL | Kd [11]: 1280 pM

B19: X02.11 (antibody, human IgG4 S228P)
heavy: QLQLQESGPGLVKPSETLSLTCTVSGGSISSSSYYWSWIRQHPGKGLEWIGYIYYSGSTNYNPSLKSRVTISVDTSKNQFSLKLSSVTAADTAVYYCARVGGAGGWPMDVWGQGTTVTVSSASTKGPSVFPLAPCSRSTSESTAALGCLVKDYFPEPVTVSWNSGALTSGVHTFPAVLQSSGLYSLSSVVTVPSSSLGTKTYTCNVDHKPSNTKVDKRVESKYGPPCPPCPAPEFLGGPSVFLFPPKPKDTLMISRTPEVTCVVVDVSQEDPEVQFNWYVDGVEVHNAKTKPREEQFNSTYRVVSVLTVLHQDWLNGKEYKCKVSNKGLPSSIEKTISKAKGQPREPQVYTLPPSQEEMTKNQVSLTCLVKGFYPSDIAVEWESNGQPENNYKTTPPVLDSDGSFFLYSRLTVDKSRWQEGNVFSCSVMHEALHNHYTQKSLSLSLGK
VL: QAVLTQPASLSASPGESARLTCTLPSDINVRYYNIYWYQQKPGSPPRYLLYYYSDSHKGQGSGVPSRFSGSKDVSTNSGILLISGLQSEDEADYYCMTWSSNGSGVFGGGTQLTVLG
notes: IgG4 S228P; VH L74S, I78F, R81K, T(82A)S relative to X02.1
EC50 [5]: 18.1 µg/mL | Kd [6]: 23900 pM

Now from value to binder:

Kd [1]: 378 to 27000 pM
B1: X02.1 (antibody, human IgG4 S228P, lambda)
heavy: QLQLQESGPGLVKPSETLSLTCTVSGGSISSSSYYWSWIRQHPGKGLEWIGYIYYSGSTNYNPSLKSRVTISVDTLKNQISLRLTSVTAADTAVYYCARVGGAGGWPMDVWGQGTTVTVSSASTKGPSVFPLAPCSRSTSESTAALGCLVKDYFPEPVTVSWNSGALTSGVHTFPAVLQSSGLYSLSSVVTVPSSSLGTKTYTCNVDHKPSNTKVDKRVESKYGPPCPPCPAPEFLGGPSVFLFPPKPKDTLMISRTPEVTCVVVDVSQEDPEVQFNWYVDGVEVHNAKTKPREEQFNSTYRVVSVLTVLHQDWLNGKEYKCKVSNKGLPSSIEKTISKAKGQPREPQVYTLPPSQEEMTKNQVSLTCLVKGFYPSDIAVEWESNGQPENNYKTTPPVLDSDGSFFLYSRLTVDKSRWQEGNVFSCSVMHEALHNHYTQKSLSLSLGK
light: QAVLTQPASLSASPGESARLTCTLPSDINVRYYNIYWYQQKPGSPPRYLLYYYSDSHKGQGSGVPSRFSGSKDVSTNSGILLISGLQSEDEADYYCMTWSSNGSGVFGGGTQLTVLGQPKAAPSVTLFPPSSEELQANKATLVCLISDFYPGAVTVAWKADSSPVKAGVETTTPSKQSNNKYAASSYLSLTPEQWKSHRSYSCQVTHEGSTVEKTVAPTECS
notes: also called parental antibody X02.1; unfused form of A02.1 (X355/02)

EC50 [7]: 4.3 µg/mL | Kd [8]: 385 pM
B7: X02.73 (antibody, human IgG4 S228P)
heavy: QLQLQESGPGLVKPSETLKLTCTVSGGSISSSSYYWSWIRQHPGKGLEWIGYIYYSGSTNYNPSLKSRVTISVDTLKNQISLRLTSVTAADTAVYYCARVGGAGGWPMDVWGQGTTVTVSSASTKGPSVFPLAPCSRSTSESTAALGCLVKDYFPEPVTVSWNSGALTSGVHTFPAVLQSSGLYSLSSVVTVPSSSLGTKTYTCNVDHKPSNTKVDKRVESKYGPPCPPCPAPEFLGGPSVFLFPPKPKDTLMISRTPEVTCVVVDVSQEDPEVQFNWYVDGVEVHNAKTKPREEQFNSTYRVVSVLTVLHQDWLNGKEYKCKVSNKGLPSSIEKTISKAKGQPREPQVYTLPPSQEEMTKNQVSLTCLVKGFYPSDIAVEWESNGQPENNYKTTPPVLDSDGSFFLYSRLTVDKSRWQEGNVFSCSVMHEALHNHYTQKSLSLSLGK
VL: QAVLTQPASLSASPGESARLTCTLPSDINVRYYNIYWYQQKPGSPPRYLLYYYSDSHKGQGSGVPSRFSGSKDVSTNSGILLISGLQSEDEADYYCMTWSSNGSGVFGGGTQLTVLG
notes: IgG4 S228P; VH S19K relative to X02.1

EC50 [10]: 30 µg/mL | Kd [11]: 250 pM
B8: X02.96 (antibody)
heavy: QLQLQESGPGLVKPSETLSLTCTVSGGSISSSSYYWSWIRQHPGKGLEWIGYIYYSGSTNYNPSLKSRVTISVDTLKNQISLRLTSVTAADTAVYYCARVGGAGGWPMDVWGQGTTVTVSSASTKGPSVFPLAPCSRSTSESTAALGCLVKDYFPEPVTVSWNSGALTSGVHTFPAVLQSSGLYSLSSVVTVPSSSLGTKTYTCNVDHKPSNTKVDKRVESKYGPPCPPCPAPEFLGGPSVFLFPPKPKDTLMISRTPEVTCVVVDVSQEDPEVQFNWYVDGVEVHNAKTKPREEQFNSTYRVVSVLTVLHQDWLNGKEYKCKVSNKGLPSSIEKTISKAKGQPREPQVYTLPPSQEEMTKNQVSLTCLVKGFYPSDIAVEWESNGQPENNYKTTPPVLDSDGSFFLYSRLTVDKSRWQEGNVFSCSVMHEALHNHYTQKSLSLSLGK
VL: QAVLTQPPSLSASPGESARLTCTLPSDINVRYYNIYWYQQKPGSPPRYLLYYYSDSHKGQGSGVPSRFSGSKDVSTNSGILLISGLQSEDEADYYCMTWSSNGSGVFGGGTQLTVLG
notes: IgG4 S228P with the X02.1 VH; VL A8P relative to A02.1

EC50 [7]: 4.9 µg/mL | Kd [8]: 638 pM
B11: X02.75 (antibody, human IgG4 S228P)
heavy: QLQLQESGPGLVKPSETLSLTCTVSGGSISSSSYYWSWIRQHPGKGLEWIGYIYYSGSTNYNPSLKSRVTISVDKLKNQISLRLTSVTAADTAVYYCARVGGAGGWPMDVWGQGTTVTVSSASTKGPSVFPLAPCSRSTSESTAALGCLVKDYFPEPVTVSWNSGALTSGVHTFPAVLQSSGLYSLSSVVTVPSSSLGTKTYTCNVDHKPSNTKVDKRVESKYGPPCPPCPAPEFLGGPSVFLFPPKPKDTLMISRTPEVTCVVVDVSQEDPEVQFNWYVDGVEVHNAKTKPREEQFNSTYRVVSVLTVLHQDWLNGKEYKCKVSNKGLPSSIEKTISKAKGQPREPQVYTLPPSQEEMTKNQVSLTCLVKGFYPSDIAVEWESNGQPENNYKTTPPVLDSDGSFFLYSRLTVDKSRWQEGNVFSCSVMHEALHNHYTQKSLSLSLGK
VL: QAVLTQPASLSASPGESARLTCTLPSDINVRYYNIYWYQQKPGSPPRYLLYYYSDSHKGQGSGVPSRFSGSKDVSTNSGILLISGLQSEDEADYYCMTWSSNGSGVFGGGTQLTVLG
notes: IgG4 S228P; VH T73K relative to X02.1

EC50 [3]: 3.8 µg/mL
B14: X02.82 (antibody, V domains shown)
VH: QLQLQESGPGLVKPSETLSLTCTVSGGSISSSSYYWSWIRQHPGKGLEWIGYIYYSGSTNYNPSLKSRVTISVDTLKNQISLRLTSVTAADTAVYYCARVGGAGGWPMDVWGQGTTVTVSS
VL: QAVLTQPASLSASPGESARLTCTLPSDINVRYYNIYWYQQKPGSPPRYLLRYYSDSHKGQGSGVPSRFSGSKDVSTNSGILLISGLQSEDEADYYCMTWSSNGSGVFGGGTQLTVLG
notes: IgG4 S228P with the X02.1 VH; VL Y49R relative to A02.1

Kd [9]: 68.5 pM
B16: X02.74 (antibody, human IgG4 S228P, V domains shown)
VH: QLQLQESGPGLVKPSETLSLTCTVSGGSISSSSYYWSWIRQHPGKGLEWIGYIYYSGSTNYNPSLKSRVTISVDTLKNQISLRLTSVTAADTAVYYCARVGGAGGWPLEVWGQGTTVTVSS
VL: QAVLTQPASLSASPGESARLTCTLPSDINVRYYNIYWYQQKPGSPPRYLLYYYSDSHKGQGSGVPSRFSGSKDVSTNSGILLISGLQSEDEADYYCMTWSSNGSGVFGGGTQLTVLG
notes: IgG4 S228P; VH M(100C)L, D101E relative to X02.1

Kd [9]: 9.11 pM
B18: X02.77 (antibody, human IgG4 S228P)
heavy: not shown
VL: QAVLTQPASLSASPGESARLTCTLPSDINVRYYNIYWYQQKPGSPPRYLLYYYSDSHKGQGSGVPSRFSGSKDVSTNSGILLISGLQSEDEADYYCMTWSSNGSGVFGGGTQLTVLG
notes: IgG4 S228P; VH D101E relative to X02.1
